Data published in patent US20110008841A1.

Tests used:
[1] = biological target: huIL-17RA-FLAG-polyHis (human) (UniProt Q96F46); assay: Luminex binning; huIgG on bead 72 as capture, 2nd mAb A [D00012 FIG. 16B]
[2] = biological target: huIL-17RA-FLAG-polyHis (human) (UniProt Q96F46); assay: Luminex binning; huIgG on bead 72 as capture, 2nd mAb B [D00012 FIG. 16B]
[3] = biological target: huIL-17RA-FLAG-polyHis (human) (UniProt Q96F46); assay: Luminex binning; huIgG on bead 72 as capture, 2nd mAb C [D00012 FIG. 16B]
[4] = biological target: huIL-17RA-FLAG-polyHis (human) (UniProt Q96F46); assay: Luminex binning; huIgG on bead 72 as capture, 2nd mAb D [D00012 FIG. 16B]
[5] = biological target: huIL-17RA-FLAG-polyHis (human) (UniProt Q96F46); assay: Luminex binning; huIgG on bead 72 as capture, 2nd mAb E [D00012 FIG. 16B]
[6] = biological target: huIL-17RA-FLAG-polyHis (human) (UniProt Q96F46); assay: Luminex binning; huIgG on bead 72 as capture, 2nd mAb F [D00012 FIG. 16B]
[7] = biological target: huIL-17RA-FLAG-polyHis (human) (UniProt Q96F46); assay: Luminex binning; huIgG on bead 72 as capture, 2nd mAb M [D00012 FIG. 16B]
[8] = biological target: huIL-17RA-FLAG-polyHis (human) (UniProt Q96F46); assay: Luminex binning; huIgG on bead 72 as capture, 2nd mAb I [D00012 FIG. 16B]
[9] = biological target: huIL-17RA-FLAG-polyHis (human) (UniProt Q96F46); assay: Luminex binning; huIgG on bead 72 as capture, 2nd mAb J [D00012 FIG. 16B]
[10] = biological target: huIL-17RA-FLAG-polyHis (human) (UniProt Q96F46); assay: Luminex binning; huIgG on bead 72 as capture, 2nd mAb K [D00012 FIG. 16B]
[11] = biological target: huIL-17RA-FLAG-polyHis (human) (UniProt Q96F46); assay: Luminex binning; huIgG on bead 72 as capture, 2nd mAb L [D00012 FIG. 16B]
[12] = biological target: huIL-17RA-FLAG-polyHis (human) (UniProt Q96F46); assay: Luminex binning; huIgG on bead 72 as capture, 2nd mAb N [D00012 FIG. 16B]
[13] = biological target: huIL-17RA-FLAG-polyHis (human) (UniProt Q96F46); assay: Luminex binning; huIgG on bead 72 as capture, 2nd mAb O [D00012 FIG. 16B]
[14] = biological target: huIL-17RA-FLAG-polyHis (human) (UniProt Q96F46); assay: Luminex binning; huIgG on bead 72 as capture, 2nd mAb Q [D00012 FIG. 16B]
[15] = biological target: huIL-17RA-FLAG-polyHis (human) (UniProt Q96F46); assay: Luminex binning; huIgG on bead 72 as capture, 2nd mAb R [D00012 FIG. 16B]

Substance: huIgG (antibody)
- normalized MFI [1]: 84
- normalized MFI [2]: 37
- normalized MFI [3]: 54
- normalized MFI [4]: 123
- normalized MFI [5]: 26
- normalized MFI [6]: 140
- normalized MFI [7]: 32
- normalized MFI [8]: 22
- normalized MFI [9]: 35
- normalized MFI [10]: 100
- normalized MFI [11]: 34
- normalized MFI [12]: 56
- normalized MFI [13]: 95
- normalized MFI [14]: 28
- normalized MFI [15]: 50
